From publication PMC10992290, “In vitro biosynthesis of ATP from adenosine and polyphosphate” (Bioresources and Bioprocessing, 2021)

Assays:
Test in all cases: HPLC nucleotide assay
AtAdk = target: T1, AtAdk (Arabidopsis thaliana, UniProt Q9LZG0); format: biochemical; details: phosphate donor; 10 mM adenosine, 20 mM MgCl2, Tris-HCl pH 8.0, 45 °C
T1 construct: gene ADK2

HPLC nucleotide assay [1] = substrate: Nc1ncnc2c1ncn2[C@@H]1O[C@H](COP(=O)(O)OP(=O)(O)O)[C@@H](O)[C@H]1O; format: biochemical, Sulfurovum lithotrophicum; details: polyP6 as phosphate donor, MgCl2, Tris-HCl pH 8.0, 37 °C (routine assay)
From the text: HPLC nucleotide assay on SlPPK

HPLC nucleotide assay [2] = substrate: Nc1ncnc2c1ncn2[C@@H]1O[C@H](COP(=O)(O)O)[C@@H](O)[C@H]1O; format: biochemical, Lampropedia hyalina; details: polyP6 as phosphate donor, MgCl2, Tris-HCl pH 8.0, 37 °C (routine assay)
From the text: HPLC nucleotide assay on LhPPK

T1 sequence (Q9LZG0 whole entry): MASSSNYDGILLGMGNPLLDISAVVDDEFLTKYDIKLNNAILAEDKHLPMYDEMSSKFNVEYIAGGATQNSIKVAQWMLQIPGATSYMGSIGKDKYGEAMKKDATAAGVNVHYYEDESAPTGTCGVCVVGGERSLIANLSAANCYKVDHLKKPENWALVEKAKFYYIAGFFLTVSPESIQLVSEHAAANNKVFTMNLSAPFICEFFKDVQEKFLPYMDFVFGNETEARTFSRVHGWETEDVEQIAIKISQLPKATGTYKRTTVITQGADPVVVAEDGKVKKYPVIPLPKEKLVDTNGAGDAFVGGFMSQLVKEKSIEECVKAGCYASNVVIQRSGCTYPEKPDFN

## Nc1ncnc2c1ncn2[C@@H]1O[C@H](COP(=O)(O)OP(=O)(O)OP(=O)(O)O)[C@@H](O)[C@H]1O [ATP]
AtAdk
  HPLC nucleotide assay: conversion of adenosine to AMP by AtAdk, which required ATP as a phosphate donor

B1: SlPPK (Sulfurovum lithotrophicum) (protein)
chain: MKKNIYKKELYKLQVELVKFQKYVIEENVAVCLVLEGRDTAGKDGTIKRFTEHLSPREARTVALGVPSDKEKKSWYFQRYVPHLPSAGEIVFFNRSWYNRAGVEKVMGFCTKKQYKAFMEEVGSFEQMLTHSNIRFFKYYLDITKKEQKKRLEARKTDPLKQWKLSPIDAKAQKMWDAYSKARDDMFNKTSFIYAPWYVVHTDDKKEARINIMKHFLSLNDYPDKDKALLVYDHDVICKFDPVCYEKEMIAP
HPLC nucleotide assay [1]
  Km: 0.61 mM
  Vmax: 1400 µM/min
  kcat: 140 s⁻¹
  kcat/Km: 230000 M⁻¹ s⁻¹

B2: LhPPK (Lampropedia hyalina DSM 16112) (protein)
chain: MTRKESPPMEAFKKYRISPKNTLKDIDPSDKPFSFGTKKDELQRLDELAVELDDLQNTLYAGKRRKVLLILQGLDTSGKDGTIRWVFSRTSPLGVHVAAFKAPSERERAHDFLWRCHAVVPANGELTVWNRSHYEDVLVPPVEGWIDKAETQRRYGHINDFERLLSETGTTIVKCMLHISNEEQRERLQDRLKDPGKNWKFAADDLSTRAKWNDYQRAYEQALQATSTPHAPWYVIPANSKRHRNLMVAQLLVQTLRDMKLRLPPPNLAFKDLVVN
HPLC nucleotide assay [2]
  Km: 5.70 mM
  Vmax: 860 µM/min
  kcat: 92 s⁻¹
  kcat/Km: 16100 M⁻¹ s⁻¹
